# Results from article PMC2199121.
# Target: C57BL/6 and BALB/c IL-4Rs on transfected TF-1 cells (association rates told for both together)
# Experiment: radioligand binding
substance,measurement,value
iodinated recombinant murine IL-4 (125I-IL-4) (from UniProt P07750 21-140) (ligand),kon,3.33e+06 to 4.33e+06 M⁻¹ s⁻¹
